# Reference: article PMC10397247
# Read-outs that look alike come from different tables or passages of the source.
# Legend:
# [1] = biological target: T1, O9-bP; test: two-hybrid library CCNG1;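 further: natural log of median RNA to DNA barcode read ratio; higher means stronger binding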
# T1 chain: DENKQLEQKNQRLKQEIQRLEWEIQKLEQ
# [2] = biological target: T2, O8-bP; test: two-hybrid library CCNG1;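 further: natural log of median RNA to DNA barcode read ratio; higher means stronger binding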
# T2 chain: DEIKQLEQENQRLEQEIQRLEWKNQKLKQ
# [3] = biological target: T3, 4H4073-bH; test: two-hybrid library CCNG1;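 further: natural log of median RNA to DNA barcode read ratio; higher means stronger binding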
# T3 chain: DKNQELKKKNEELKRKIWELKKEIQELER
# [4] = biological target: T4, 4H457-bH; test: two-hybrid library CCNG1;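 further: natural log of median RNA to DNA barcode read ratio; higher means stronger binding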
# T4 chain: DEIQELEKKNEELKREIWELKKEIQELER
# [5] = biological target: T5, 4H575-bH; test: two-hybrid library CCNG1
# T5 chain: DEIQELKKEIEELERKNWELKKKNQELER
# [6] = biological target: T6, 4H683-bH; test: two-hybrid library CCNG1
# T6 chain: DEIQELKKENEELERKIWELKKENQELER
# [7] = biological target: T7, 4H754-bH; test: two-hybrid library CCNG1
# T7 chain: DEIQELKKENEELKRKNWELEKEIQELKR
# [8] = biological target: T8, 4H780-bH; test: two-hybrid library CCNG1
# T8 chain: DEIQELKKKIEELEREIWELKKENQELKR
# [9] = biological target: T9, 4H797-bH; test: two-hybrid library CCNG1
# T9 chain: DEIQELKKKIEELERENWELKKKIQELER
# [10] = biological target: T10, 4H850-bA; test: two-hybrid library CCNG1
# T10 chain: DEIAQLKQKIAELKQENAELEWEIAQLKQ
# [11] = biological target: T11, 4H855-bH; test: two-hybrid library CCNG1
# T11 chain: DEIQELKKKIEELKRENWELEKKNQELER
# [12] = biological target: T12, 4H953-bH; test: two-hybrid library CCNG1
# T12 chain: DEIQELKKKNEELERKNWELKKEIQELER
# [13] = biological target: T13, 4H968-bH; test: two-hybrid library CCNG1
# T13 chain: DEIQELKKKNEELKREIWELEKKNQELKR
# [14] = biological target: T14, 4H3974-bA; test: two-hybrid library CCNG1
# T14 chain: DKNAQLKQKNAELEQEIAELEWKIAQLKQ
# [15] = biological target: T15, 4H570-bA; test: two-hybrid library CCNG1
# T15 chain: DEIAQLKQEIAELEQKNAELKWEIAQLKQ
# [16] = biological target: T16, 4H584-bA; test: two-hybrid library CCNG1
# T16 chain: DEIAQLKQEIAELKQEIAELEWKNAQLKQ
# [17] = biological target: T17, 4H619-bA; test: two-hybrid library CCNG1
# T17 chain: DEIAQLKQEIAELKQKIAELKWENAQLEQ
# [18] = biological target: T18, 4H906-bA; test: two-hybrid library CCNG1
# T18 chain: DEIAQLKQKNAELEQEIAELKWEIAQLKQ
# [19] = biological target: T19, 4H3926-bH; test: two-hybrid library CCNG1; conditions: mean of both orientations
# T19 chain: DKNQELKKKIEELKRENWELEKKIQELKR
# [20] = biological target: T20, 4H568-bA; test: two-hybrid library CCNG1
# T20 chain: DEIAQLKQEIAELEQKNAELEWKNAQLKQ
# [21] = biological target: T21, 4H591-bH; test: two-hybrid library CCNG1
# T21 chain: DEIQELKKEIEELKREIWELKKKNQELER
# [22] = biological target: T22, 4H626-bH; test: two-hybrid library CCNG1
# T22 chain: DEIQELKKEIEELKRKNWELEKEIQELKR
# [23] = biological target: T23, 4H906-bH; test: two-hybrid library CCNG1
# T23 chain: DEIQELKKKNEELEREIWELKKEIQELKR
# [24] = biological target: T24, 4H486-AA; test: two-hybrid library CCmax
# T24 chain: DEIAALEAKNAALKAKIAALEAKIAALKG
# [25] = biological target: T25, 4H535-AA; test: two-hybrid library CCmax; conditions: mean of both orientations
# T25 chain: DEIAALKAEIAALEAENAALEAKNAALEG
# [26] = biological target: T26, 4H58-AA; test: two-hybrid library CCmax; conditions: mean of both orientations
# T26 chain: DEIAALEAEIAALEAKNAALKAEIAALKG
# [27] = biological target: T27, 4H895-AA; test: two-hybrid library CCmax; conditions: mean of both orientations
# T27 chain: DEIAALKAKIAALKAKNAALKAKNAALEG
# [28] = biological target: T28, 4H_APH; test: two-hybrid library CCmax
# T28 chain: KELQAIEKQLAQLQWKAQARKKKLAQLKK
# [29] = biological target: T29, 4H_BCR; test: two-hybrid library CCmax; conditions: mean of both orientations
# T29 chain: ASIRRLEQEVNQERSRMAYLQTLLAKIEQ
# [30] = biological target: 4H_GCN4; test: two-hybrid library CCmax
# [31] = biological target: GCN2_T; test: two-hybrid library CCmax
# [32] = biological target: T30, 4H3926-bA; test: two-hybrid library CCNG1; conditions: mean of both orientations
# T30 chain: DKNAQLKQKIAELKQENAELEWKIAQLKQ
# [33] = biological target: T31, 4H4073-bA; test: two-hybrid library CCNG1
# T31 chain: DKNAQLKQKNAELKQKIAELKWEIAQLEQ
# [34] = biological target: T32, 4H457-bA; test: two-hybrid library CCNG1
# T32 chain: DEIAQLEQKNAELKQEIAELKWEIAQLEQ
# [35] = biological target: T33, 4H575-bA; test: two-hybrid library CCNG1
# T33 chain: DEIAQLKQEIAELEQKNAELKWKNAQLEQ
# [36] = biological target: T34, 4H591-bA; test: two-hybrid library CCNG1
# T34 chain: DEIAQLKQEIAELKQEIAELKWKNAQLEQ
# [37] = biological target: T35, 4H626-bA; test: two-hybrid library CCNG1
# T35 chain: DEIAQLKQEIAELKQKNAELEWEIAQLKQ
# [38] = biological target: T36, 4H683-bA; test: two-hybrid library CCNG1
# T36 chain: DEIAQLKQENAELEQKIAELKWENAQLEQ
# [39] = biological target: T37, 4H754-bA; test: two-hybrid library CCNG1
# T37 chain: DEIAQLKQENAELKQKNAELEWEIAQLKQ
# [40] = biological target: T38, 4H780-bA; test: two-hybrid library CCNG1
# T38 chain: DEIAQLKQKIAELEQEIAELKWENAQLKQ
# [41] = biological target: T39, 4H797-bA; test: two-hybrid library CCNG1
# T39 chain: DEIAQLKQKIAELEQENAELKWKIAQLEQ
# [42] = biological target: T40, 4H855-bA; test: two-hybrid library CCNG1
# T40 chain: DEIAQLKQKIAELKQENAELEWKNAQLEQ
# [43] = biological target: T41, 4H918-bA; test: two-hybrid library CCNG1
# T41 chain: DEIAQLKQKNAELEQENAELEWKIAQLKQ
# [44] = biological target: T42, 4H953-bA; test: two-hybrid library CCNG1
# T42 chain: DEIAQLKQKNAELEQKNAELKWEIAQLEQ
# [45] = biological target: T43, 4H968-bA; test: two-hybrid library CCNG1
# T43 chain: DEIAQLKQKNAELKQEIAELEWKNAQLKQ
# [46] = biological target: T44, 4H3974-bN; test: two-hybrid library CCNG1
# T44 chain: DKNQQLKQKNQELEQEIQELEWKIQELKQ
# [47] = biological target: T45, 4H570-bN; test: two-hybrid library CCNG1
# T45 chain: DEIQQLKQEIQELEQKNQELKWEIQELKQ
# [48] = biological target: T46, 4H584-bN; test: two-hybrid library CCNG1
# T46 chain: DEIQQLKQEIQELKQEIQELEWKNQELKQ
# [49] = biological target: T47, 4H619-bN; test: two-hybrid library CCNG1
# T47 chain: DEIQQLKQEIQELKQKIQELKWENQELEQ
# [50] = biological target: T48, 4H850-bN; test: two-hybrid library CCNG1
# T48 chain: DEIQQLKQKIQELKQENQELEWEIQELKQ
# [51] = biological target: T49, 4H906-bN; test: two-hybrid library CCNG1
# T49 chain: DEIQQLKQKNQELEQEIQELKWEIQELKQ
# [52] = biological target: T50, 4H918-bH; test: two-hybrid library CCNG1
# T50 chain: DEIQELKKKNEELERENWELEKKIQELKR
# [53] = biological target: T51, P7mS; test: two-hybrid library CC1
# T51 chain: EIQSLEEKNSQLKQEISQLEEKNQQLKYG
# [54] = biological target: T52, P8; test: two-hybrid library CC1; conditions: mean of both orientations
# T52 chain: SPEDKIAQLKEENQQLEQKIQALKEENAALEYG
# [55] = biological target: T53, P8mS; test: two-hybrid library CC1; conditions: mean of both orientations
# T53 chain: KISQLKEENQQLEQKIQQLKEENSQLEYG
# [56] = biological target: T54, P9; test: two-hybrid library CC1; conditions: mean of both orientations
# T54 chain: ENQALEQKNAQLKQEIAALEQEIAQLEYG
# Chain of 4H_GCN4 (chain, as listed by the source): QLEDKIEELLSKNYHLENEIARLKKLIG
binder,measurement,setting,value
DENKQLEQKNQRLKQEIQRLEWEIQKLEQ [O9-bP],interaction score,[1]; mean of both orientations,-0.872
DEIKQLEQENQRLEQEIQRLEWKNQKLKQ [O8-bP],interaction score,[2],-1.1
same,interaction score,[1],-0.57
DKNQELKKKNEELKRKIWELKKEIQELER [4H4073-bH],interaction score,[3],-0.834
same,interaction score,[4],-0.419
same,interaction score,[5],-1.03
same,interaction score,[6],-0.249
same,interaction score,[7],-1.38
same,interaction score,[8],-0.609
same,interaction score,[9],-0.554
same,interaction score,[10],-2.46
same,interaction score,[11],-1.09
same,interaction score,[12],-1.39
same,interaction score,[13],-1.06
DKNAQLKQKNAELEQEIAELEWKIAQLKQ [4H3974-bA],interaction score,[14],-0.293
same,interaction score,[15],-0.136
same,interaction score,[16],-1.38
same,interaction score,[17],-0.503
same,interaction score,[10],-1.84
same,interaction score,[18],-1.37
DKNQELKKKIEELKRENWELEKKIQELKR [4H3926-bH],interaction score,[19],0.997
same,interaction score,[3],-0.649
same,interaction score,[4],0.423
same,interaction score,[20],0.77
same,interaction score,[5],-0.061
same,interaction score,[21],-1.8
same,interaction score,[22],-1.31
same,interaction score,[6],-0.233
same,interaction score,[7],0.0882
same,interaction score,[8],-0.369
same,interaction score,[9],0.147
same,interaction score,[11],-0.798
same,interaction score,[23],-1.18
same,interaction score,[12],1.52
same,interaction score,[13],1.04
DEIAALEAKNAALKAKIAALEAKIAALKG [4H486-AA],interaction score,[24],0.819
same,interaction score,[25],-1.16
same,interaction score,[26],-0.289
same,interaction score,[27],-1.84
same,interaction score,[28],-1.97
same,interaction score,[29],-1.34
same,interaction score,[30],-1.06
same,interaction score,[31],-0.249
DKNAQLKQKIAELKQENAELEWKIAQLKQ [4H3926-bA],interaction score,[32],-0.117
same,interaction score,[33],-0.409
same,interaction score,[34],0.866
same,interaction score,[35],0.34
same,interaction score,[36],-1.19
same,interaction score,[37],-0.259
same,interaction score,[38],-0.786
same,interaction score,[39],-0.909
same,interaction score,[40],-0.771
same,interaction score,[41],0
same,interaction score,[42],-1.23
same,interaction score,[18],-1.13
same,interaction score,[43],-0.539
same,interaction score,[44],0.769
same,interaction score,[45],1.59
DKNQQLKQKNQELEQEIQELEWKIQELKQ [4H3974-bN],interaction score,[46],-0.444
same,interaction score,[47],-1.69
same,interaction score,[48],-0.919
same,interaction score,[49],-0.273
same,interaction score,[50],0.5
same,interaction score,[51],-0.832
DEIQELEKKNEELKREIWELKKEIQELER [4H457-bH],interaction score,[4],0.207
same,interaction score,[5],-1.98
same,interaction score,[6],-0.297
same,interaction score,[7],-0.826
same,interaction score,[8],-1.57
same,interaction score,[9],-0.848
same,interaction score,[11],-1.6
same,interaction score,[52],-0.832
same,interaction score,[12],-0.857
same,interaction score,[45],0.553
same,interaction score,[13],0.389
DEIQQLKQEIQELKQEIQELEWKNQELKQ [4H584-bN],interaction score,[48],0.406
same,interaction score,[49],1.21
same,interaction score,[50],0.196
same,interaction score,[51],-0.43
EIQSLEEKNSQLKQEISQLEEKNQQLKYG [P7mS],interaction score,[53],-2.53
same,interaction score,[54],0.285
same,interaction score,[55],-0.225
same,interaction score,[56],-2.27
